The nanobody polyreactivity screen of Harvey et al. (2022)

Experiment: yeast display, Sf9 membrane polyspecificity reagent, FACS + sequencing; frameworks hold sequencing errors
In short: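 Nanobodies came from a synthetic yeast display library in Saccharomyces cerevisiae BJ5465, induced with galactose for 36–48 hours and stained for 1 hour at 4 °C with 10% biotinylated, detergent-solubilized Sf9 membrane reagent. Cells were enriched on streptavidin microbeads and then FACS-sorted, with low and high (top ~1%) gates set on anti-HA fluorescence for expression and streptavidin fluorescence for reagent binding. Each polyreactivity label reflects the gate a clone came from. Genes were amplified by colony PCR, sequenced by MiSeq 2 × 250 and filtered by CDR length.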

| Sequence | polyreactivity (PSR sort gate) |
| --- | --- |
| QVQLVESGGGLVQAGGSLRLSCAASGSIFSQYAMGSYRQAPGKERELVAAITSGGRTYYADSVKGRFTISRDNAKNTVYLQMNSLKPEDTAVYYCAASRRGGGLDYWGQGTKVTVSS | high polyreactivity |
| QVQLVESGAGLVQAGGSLRLSCAASGRTFHGYAMGWYRQAPRKERELLARINWSDGRTYYADSVKGRFTISRDNAKNTVFLQMNSLKPEDTAVYYCAADKTVSYAPAWYYYWGQGTQVTVSS | low polyreactivity |
| QVQLVESGGGLVQAGGSLRLSCAASGSIFGDYVMGWNRQAPGKERELVAAINRGGSTYYADSVKGRFTISRDNAKNTVYLQMNSLKPEDTAVYYCAAGYPSWYYGYPYDSWGQGSQVTVSS | low polyreactivity |
| QVQLVESGGGIVQAGGSLRLSCAASGRTLDKYTMGWYRQAPGKERELVASITSGGSTNYADSVKGRFTISRDNAKNTVYLQMNSLKPEDTAVYYCNKRRRVSKLGQGYDYWGQGTQVTVSS | low polyreactivity |
| QVQLVESGGGLVQAGGSLRLSCAASGGIIEDNMGWYRQAPGKERELVAAIDLRADSTYYADSVKGRFTISRDNAKNTVYLQMNSLKPEDTAVYYCAAGARQGVYRGGDYWGQGTQVTVSS | low polyreactivity |
| QVQLVESGGGLVQAGGSLRLSCAASGRIFGRYAMGWYRQAPGKERELVATITSGGSTYYADSVKGRFTISRDNAKNTDYLQMNSLKPEDTAVYFCAAVHRGYFLAFYYWGQGTQVTVSS | high polyreactivity |
| QVQLVESGGGLVQAGGSLRLSCAASGGILVGYAMGWYRQAPGKERELVAAINYSGGSTNYADSVKGRFTISRDNAKNTVYLQMNSLKPVDTAVYYCAARSTARYGYWGQGTQVTVSS | low polyreactivity |
| QVQLVESGGGLVQAGGSLRLSCAASGRIFGEYAMGWYRQAPGKERELVAAISGGGSTYYADSVKGRFTISRDNAKNTVYLQMNSLKPEETAVYYCAVYSVYHEYDYWGHGTQVTVSS | low polyreactivity |
| QVQLVESGGGLVQAGGSLRLSCAASGRIFYYYVMGWYRQAPGKERELVAAISSRGGSTYYADSVKGRFTISRDNAKNTVYLQMNSLKPEDTAVYYCAAEYGSISLRYPYYWRYDYWGQGTQVTVSS | high polyreactivity |
| QVQLVESGGGLVQAGGSLRLSCAASGSILQQIYAMGWYRPAPGKERELVAAISASGGSTYYADSVKGRFTISRDNAKNTVYLQMNSLKPEDTAVYYCNKVGYYASVLGYDYWGQGTQVTVSS | high polyreactivity |
| QDQLVESGGCLVQAGGSLRLSCAASGGTFLYYAMGWYRQAPGKERELVAAISRGGSTHYADSVKGRFTISRDNAKNTVYLQMNSLKPEDTAVYYCAAVRSHRKRINFYDYWGQGTQVTVSS | low polyreactivity |
| QVQLVESGGGLVQAGGSLRLSCAASGSIYTNAMGWYRQAPGKERELVAAISKRGGSTNYADSVKGRFTISRDNAKNTVYLQMNSLKPEDTAVYYCNRTGSTGYVQVWRPGDYWGQGTQVTVSS | high polyreactivity |
| QVQLVESGGGLVQAGGSLRLSCAASGYIFSYYTMGWYRQAPGKERELVAAISYSGGSTDYADSVKGRFTISRDNAKNTVYLQMNSLKPEDTAVYYCNADYSFWAKPYWEYGYDYWGQGTQVTVSS | low polyreactivity |
| QVQLVESGGGLVQAGGSLRLSCAASGLIFRHYAMGWYRQSPGKEREFVAAITWSGGSTYYADSVKGRFTISRDNAKNTVYLQMNSLKPEDTAVYYCAAEGPGYGPTGDFYWYTYYYWGQGSQVTVSS | low polyreactivity |
| QVQLVESGGGLVQAGGSLRLSCAASGFTFHYNAMGWYRQAPGKEREFVAAISGSGDRTYYADSVKGRFTISRDNAKNTVYLQMNSLKPEDTAVYYCATSVRQNYFYSYDYWGQGTQVTVSS | high polyreactivity |
| QVQLLESGGGLVQAGGSLRLSCAASGRTFAWNAMGWYRQAPGNERELVARLRSSGSTYYADSVKGRFTISRDNAKNTVYLQMNSLKPEDTAVYYGAKKWGWFPVYYWGQGTQVTVSS | high polyreactivity |
| QVQLVESGGGLVQAGGSLRLSCAASRFIFYSNAMGWYRTAPGKERELVASITGDGGTTYYADSVKGRFTISRDNAKNNVYLQMNSLKPEDTAVYYCAKDYIYRGYYTDFRYEDYDYWGQGTQVTVSS | low polyreactivity |
| QVQLVESGGGLVQAGGRLRLSCAASGRIFRGYAMGWYRQAPGKERELVAGITWGGGRTYYADSVKGRFTISRDNAKNTVYLQLNSLKPEDTAVYYCAAYYSQDSRRKYDYWGQGTQVTVSS | high polyreactivity |
| QVQLVESGGGLVQAGGSLRLSCAAYGFTFIYYAMGRYRQAPGKERELVAAISRRGGSTYYADSVKGRFTISRDNAKNTVYLQMNSLKPEDTAVYYCAAYTLNTRYDYWGQGTQVTVSS | high polyreactivity |
| QVQLVESGGGLVQAGGSLRLSCAASGRIFRTNTMGWYRQAPGKERELVAAITRGGSTYYADSVKGRFTISRDNAKNTVYLQMNSLKPEDTAVYYCAASRYYNSVHNGGDYWGQGTQVTVSS | high polyreactivity |
| QVQLVESRGGLVQAGGSLRLSCAASGSNFYRNALGWYRQAPGKERELVAAISSDGSTNYADSVKGRFTISRDNAKNTVYLQLNSLKPEDTAVYSCAPHDRWHHRSLPYEYWGQGTQVTVSS | low polyreactivity |
| QVQLVESGGGLVQAGGSLRLSCAASGSIFYFNAMGWYRQAPGKERELVAAITYSGGSTYYADSVKGRFTISRDNAKNTFYLQMNILKPEDTAVYYCAAERRTFPLRIFDYWGQGTQVTVSS | low polyreactivity |
| QDQLVESGGGLVQAGGSLRLSCAASGFTFGDNAMGWYRQAPGKERELVAAITSSGSTNYADSVKGRFTISRDNAKNTVYLQMNSLKPEDTAVYYCNAEDSVDAPVYKDLGSEYDSWGQGTQVTVSS | low polyreactivity |
| QVQLVESGGGLVQAGGSLRLSCAASGRIFSSYAMGWYRQAPGKERELVAAISRGGGRTYYADSVKGRFTISRDNAKNTVYLQMNSLKPEDTAVYYCATVVRSAAYAFDYWGQGTQVTVSS | high polyreactivity |
| QVQLVESGGGLVQAGGSLRLSCAASGRILASYAMGWYRQAPGKEWELVAAIRYRGSTSYADSVKGRFTISRDNAKNTVYLQMNSLKPEDTGVYYCAAKWHVRGRGARYRYDYDFWGQGTQVTVSS | low polyreactivity |
| QVQLVESGGGLVQAGGSLRLSCAASGSTFPYYAMGWYRLAPGKERELVAAISFRGTRTYYADSVKGRFTISRDNAKNTVYLQMNSLKPEDTAVYYCAADASTYYGTQWASYYYWGQGTQVTVSS | high polyreactivity |
| QVQLVESGGGLVQAGGSLRLSCASSGLIFPFYDMGWYRQAPGKERELVAAMTRSGDSTYYADSVKGRFTISRDNAKNTVYLQMNSLKPEDTAVSYCAAQPGTASYAGDGDSWGQGTQVTVSS | low polyreactivity |
| QVQLVESGGGLVQAGGSLRLSCAASGSTFGTYAMGWYRQAPGKERELVAAINTSGGSTTYADSVKGRFTISRDNAKNTVYLQMNSLKPEDTAVYYCAKDTTGDAYSEYDYWGQGTQVTVSS | low polyreactivity |
| QVQLQESGGGLVQAGGSLRLSCAASGTISVHASMGWYRQAPGKERELVAGITDGANTYYADSVKGRFTISRDNSKNTVYLQMNSLKPEDTAVYYCAAYYGTEVHFTYWGQGTQVTVSS | low polyreactivity |
| QVQLVESGGGLVQAGGSLRLSCAASGSTFETYAMGWYRQAPGKEMELVAAISKTGARTYYADSVKGRFTISRDNAKNTVYLQMNSLKPEDTAVYYCAAERKAHRKPHSRVDKYYYWGQGTQVTVSS | high polyreactivity |
